Consider 7 molecules from patent publication US20090130676A1 (GENERAL HOSPITAL, published 2009).

The chains are these.
B6: Cdk7 (enzyme, not shown: small tags and cut ends)
chain: ALDVKSRAKRYEKLDFLGEGQFATVYKARDKNTNQIVAIKKIKLGHRSEAKDGINRTALREIKLLQELSHPNIIGLLDAFGHKSNISLVFDFMETDLEVIIKDNSLVLTPSHIKAYMLMTLQGLEYLHQHWILHRDLKPNNLLLDENGVLKLADFGLAKSFGSPNRAYTHQVVTRWYRAPELLFGARMYGVGVDMWAVGCILAELLLRVPFLPGDSDLDQLTRIFETLGTPTEEQWPDMCSLPDYVTFKSFPGIPLHHIFSAAGDDLLDLIQGLFLFNPCARITATQALKMKYFSNRPGPTPGCQLPRPNCPVETLKEQSNPALAIKRKRTEALEQGGLPKKLIF
notes: Bait strain named only on the sheet

The target in one assay is T1, Cdc2 (Homo sapiens (Human), UniProt P06493 1-297).
T1 construct: bait construct and species not described
Description: yeast interaction trap mating assay, lacZ reporter on Xgal.

The target of a further assay is T2, Drosophila Cdc2c (Drosophila, UniProt P23573 1-314, limits assumed).
T2 construct: bait construct not described
The assay is described as above.

For the assay “Cdk7”, the target named is B6. The assay is described as above.
A further assay has as its target T3, Cdk4 (Homo sapiens (Human), UniProt P11802 2-303).
T3 construct: construct not described
The assay is described as above.

The target of another assay is T4, CDC28 (Saccharomyces cerevisiae (strain ATCC …, UniProt P00546 1-298)).
T4 construct: bait construct not described
The assay is described as above.

The target in the next assay is T5, Cdk6.
T5 construct: Bait strain named only on the sheet
The description is as above.

The target in the next assay is T6, LexA-Cdk3 bait (human, UniProt Q00526 1-305, limits assumed).
T6 construct: also called human Cdk3; not shown: bacterial LexA protein
The assay is described as above.

Assay [1] has as its target human Cdk2 expressed from a plasmid in cdc28ts yeast (human, UniProt P24941 1-298). Briefly: cell-based or functional assay.
Assay [2] addresses pep12 (FIG. 4B numbering), thioredoxin prey fusion (E. coli, UniProt P0AA25 1-35 = thioredoxin; P0AA25 34-109 = thioredoxin). Description: yeast interaction trap mating assay, lacZ reporter on Xgal.
The target in assay [3] is pep9 (FIG. 4B numbering), thioredoxin prey fusion (E. coli, UniProt P0AA25 1-35 = thioredoxin; P0AA25 34-109 = thioredoxin). Described as above.
Assay [4] deals with pep7 (FIG. 4B numbering), thioredoxin prey fusion (E. coli, UniProt P0AA25 1-35 = thioredoxin; P0AA25 34-109 = thioredoxin). Described as above.
Assay [5] has as its target pep13 (FIG. 4B numbering), thioredoxin prey fusion (E. coli, UniProt P0AA25 1-35 = thioredoxin; P0AA25 34-109 = thioredoxin). The assay is described as above.
In assay [6] the target is pep6 (FIG. 4B numbering), thioredoxin prey fusion (E. coli, UniProt P0AA25 1-35 = thioredoxin; P0AA25 34-109 = thioredoxin). Described as above.
The target of assay [7] is pep14 (FIG. 4B numbering), thioredoxin prey fusion (E. coli, UniProt P0AA25 1-35 = thioredoxin; P0AA25 34-109 = thioredoxin). The assay is described as above.

T3 sequence (P11802 2-303 limits assumed): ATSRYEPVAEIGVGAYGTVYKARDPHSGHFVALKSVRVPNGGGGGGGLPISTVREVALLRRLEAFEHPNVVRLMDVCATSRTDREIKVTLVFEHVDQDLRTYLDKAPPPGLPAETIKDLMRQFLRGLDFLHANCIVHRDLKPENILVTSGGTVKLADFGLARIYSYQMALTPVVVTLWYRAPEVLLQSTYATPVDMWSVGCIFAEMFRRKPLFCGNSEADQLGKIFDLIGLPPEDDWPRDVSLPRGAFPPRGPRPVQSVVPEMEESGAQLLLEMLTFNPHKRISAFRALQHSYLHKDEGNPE
T2 sequence (P23573 whole entry): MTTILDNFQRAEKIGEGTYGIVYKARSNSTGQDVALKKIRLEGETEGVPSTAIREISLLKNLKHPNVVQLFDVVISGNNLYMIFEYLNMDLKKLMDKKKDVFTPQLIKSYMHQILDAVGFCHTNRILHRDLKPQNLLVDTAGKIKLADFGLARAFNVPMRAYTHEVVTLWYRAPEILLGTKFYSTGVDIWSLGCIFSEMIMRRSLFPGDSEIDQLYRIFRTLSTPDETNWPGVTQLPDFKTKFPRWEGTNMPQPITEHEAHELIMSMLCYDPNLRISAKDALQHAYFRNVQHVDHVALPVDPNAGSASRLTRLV
T1 sequence (P06493 whole entry): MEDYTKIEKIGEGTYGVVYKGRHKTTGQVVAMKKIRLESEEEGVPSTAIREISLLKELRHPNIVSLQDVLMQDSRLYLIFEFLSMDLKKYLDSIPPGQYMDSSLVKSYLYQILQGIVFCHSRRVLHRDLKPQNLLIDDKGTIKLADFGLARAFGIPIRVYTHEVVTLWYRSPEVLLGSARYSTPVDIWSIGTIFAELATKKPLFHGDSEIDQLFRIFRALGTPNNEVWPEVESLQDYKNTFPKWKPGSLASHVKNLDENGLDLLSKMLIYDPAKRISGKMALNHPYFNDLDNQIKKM
T6 sequence (Q00526 whole entry): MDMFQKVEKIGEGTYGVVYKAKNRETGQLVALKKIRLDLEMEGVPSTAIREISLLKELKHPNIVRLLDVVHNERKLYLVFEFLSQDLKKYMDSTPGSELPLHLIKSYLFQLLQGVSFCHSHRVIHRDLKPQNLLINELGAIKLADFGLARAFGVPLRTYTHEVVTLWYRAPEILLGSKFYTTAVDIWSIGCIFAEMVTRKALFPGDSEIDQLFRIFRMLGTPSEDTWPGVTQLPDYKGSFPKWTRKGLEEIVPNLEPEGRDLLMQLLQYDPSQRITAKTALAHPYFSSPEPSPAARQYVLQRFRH
T4 sequence (P00546 whole entry): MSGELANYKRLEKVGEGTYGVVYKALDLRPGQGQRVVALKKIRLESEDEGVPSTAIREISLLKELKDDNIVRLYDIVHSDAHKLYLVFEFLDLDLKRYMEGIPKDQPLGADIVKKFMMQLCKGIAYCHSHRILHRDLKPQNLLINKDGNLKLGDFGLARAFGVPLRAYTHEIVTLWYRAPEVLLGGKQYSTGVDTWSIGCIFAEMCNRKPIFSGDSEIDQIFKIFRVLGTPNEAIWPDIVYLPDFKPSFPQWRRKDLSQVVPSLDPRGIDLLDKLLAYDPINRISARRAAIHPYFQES

B1: pep2 (designed binder, not shown: small tags and cut ends)
chain: MSDKIIHLTDDSFDTDVLKADGAILVDFWAEWCGPLVCKSYRLDWEAGALFRSLFGPCKMIAPILDEIADEYQGKLTVAKLNIDQNPGTAPKYGIRGIPTLLLFKNGEVAATKVGALSKGQLKEFLDANLA
modifications: Peptide loop sits in the TrxA active-site loop; flanking Cys33 and Cys36 may form a disulfide
notes: the purified His6 form is m40
On to B1, for which the binding result with Cdc2, in the assay with Drosophila Cdc2c, in the assay with Cdk7, with Cdk4, with CDC28 and in the assay with Cdk6 was “no binding” throughout. Also, the binding result with LexA-Cdk3 bait was “no binding”.

B2: peptide 13 (FIG. 3A/3B numbering), thioredoxin prey fusion (designed binder, not shown: large carriers; small tags and cut ends)
chain: MSDKIIHLTDDSFDTDVLKADGAILVDFWAEWCGPSVRMRYGIDAFFDLGGLLHGGPCKMIAPILDEIADEYQGKLTVAKLNIDQNPGTAPKYGIRGIPTLLLFKNGEVAATKVGALSKGQLKEFLDANLA
modifications: peptide loop embedded in the thioredoxin active-site loop between Cys33 and Cys36 (may form a disulfide)
Take B2: in assay [1], the “fold decrease in plating efficiency of a Cdk2-dependent cdc28-1N yeast strain at the restrictive temperature” value was 10 fold.

B3: pep5 (designed binder, not shown: large carriers; small tags and cut ends)
chain: MSDKIIHLTDDSFDTDVLKADGAILVDFWAEWCGPSVRMRYGIDAFFDLGGLLHGGPCKMIAPILDEIADEYQGKLTVAKLNIDQNPGTAPKYGIRGIPTLLLFKNGEVAATKVGALSKGQLKEFLDANLA
modifications: peptide loop embedded in the thioredoxin active-site loop between Cys33 and Cys36 (may form a disulfide)
notes: the purified His6 form is m42
B3: the binding result with Cdc2, in the assay with Drosophila Cdc2c, with Cdk7, in the assay with Cdk4, with CDC28 and with Cdk6 was “no binding” each time. Besides, the binding result in the assay with LexA-Cdk3 bait is given as “binds”.

B4: pep8 (designed binder, not shown: large carriers; small tags and cut ends)
chain: MSDKIIHLTDDSFDTDVLKADGAILVDFWAEWCGPYSFVHHGFFNFRVSWREMLAGPCKMIAPILDEIADEYQGKLTVAKLNIDQNPGTAPKYGIRGIPTLLLFKNGEVAATKVGALSKGQLKEFLDANLA
modifications: peptide loop embedded in the thioredoxin active-site loop between Cys33 and Cys36 (may form a disulfide)
notes: The purified His6 form is m43
On to B4, for which the binding result with Cdc2, with Drosophila Cdc2c, with Cdk7, with Cdk4, with CDC28 and in the assay with Cdk6 was “no binding” each time. Besides, in the assay with LexA-Cdk3 bait, the binding result is recorded as “no binding”.

B5: pep11 (designed binder, not shown: small tags and cut ends)
chain: MSDKIIHLTDDSFDTDVLKADGAILVDFWAEWCGPWRRMELDAEIRWVKPISPLEGPCKMIAPILDEIADEYQGKLTVAKLNIDQNPGTAPKYGIRGIPTLLLFKNGEVAATKVGALSKGQLKEFLDANLA
modifications: Peptide loop sits in the TrxA active-site loop; flanking Cys33 and Cys36 may form a disulfide
notes: The purified His6 form is m45
Take B5: the binding result with Cdc2, with Drosophila Cdc2c, with Cdk7, in the assay with Cdk4, with CDC28 and with Cdk6 was “no binding” in each case. In addition, the binding result with LexA-Cdk3 bait is “no binding”.
On to B6, for which the binding result in assay [2], in [3], in [4], in [5], in assay [6] and in [7] was “no binding” in each case.

B7: pep10 (designed binder, not shown: small tags and cut ends)
chain: MSDKIIHLTDDSFDTDVLKADGAILVDFWAEWCGPQVWSLWALGWRWLRRYGWNMGPCKMIAPILDEIADEYQGKLTVAKLNIDQNPGTAPKYGIRGIPTLLLFKNGEVAATKVGALSKGQLKEFLDANLA
modifications: Peptide loop sits in the TrxA active-site loop; flanking Cys33 and Cys36 may form a disulfide
notes: The purified His6 form is m44
Regarding B7, the binding result with Cdc2, with Drosophila Cdc2c, in the assay with Cdk7, with Cdk4, with CDC28 and with Cdk6 was “no binding” throughout. For the same molecule, in the assay with LexA-Cdk3 bait, the binding result is recorded as “no binding”.
